B1: zebrafish Coiled-coil-DIX1 (zCcd1) DIX domain [zebrafish] / itself (parent)
chain: AAASTKVLYYTDRSLTPFLVNIPKRLGDVTLQDFKAAVDRHGSFRYHFKSLDPEFGTVKEEVFQDDAVIPGWEGKIVAWVEED

Variants of B1 are the subject of this test. The test is described as follows: gel filtration. As to conditions: with itself; read off a plot. On the technique in general: SEC sorts molecules by how far they enter the pores of the column.
On to AAASTKVLYFTDRSLTPFLVNIPKRLGDVTLQDFKAAVDRHGSFRYHFKSLDPEFGTVKEEVFQDDAVIPGWEGKIVAWVEED, for which the screen value was 80 mL.

The values are drawn from PMC5552852, “Structural basis for Ccd1 auto-inhibition in the Wnt pathway through homomerization of the DIX domain” (Scientific Reports, 2017).
